Source: the supplement of paper PMC10126150
± gives the standard deviation of the averaged measurements.

Test system: ATP
Assay: switch fluorescence ratio, 500 uM ATP over buffer (Cy3 cluster intensity, sum of 5 cycles each) (fold (ratio)); higher = stronger signal-on switching upon ATP binding; sequences stand for … in TCGTCGGCAGCGTCAGATGTGTATAAGAGACAGTTTTTTTTTTTTTTTTTTTTTTTTT…TC
Settings: aptamer strand: ATP DNA aptamer (quencher-CACCTGGGGGAGTATTGCGGAGGAAGG + anchor), 100 nM annealed; ATP concentration: 500 uM
Summary of the method: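 After annealing to 100 nM quencher-labelled ATP aptamer, Cy3-labelled switching-strand clusters on a modified Illumina MiSeq flow-cell were imaged in selection buffer. A second image followed after 15 min with 500 uM ATP at 22 °C, and five such buffer/ATP cycles were done, each separated by NaOH stripping and re-annealing. The fluorescence ratio, averaged per switch-domain sequence, is summed target-cycle over summed buffer-cycle Cy3 intensity per cluster, with clusters outside 100-1000 RFU excluded.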
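Note: ATP exposure 15 min at 22 °C before imaging.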

Sequence | switch fluorescence ratio
TTAGGATATA | 1 ± 0.046
GGTAACACCA | 1.015 ± 0.0095
ATATGTTATG | 0.982 ± 0.015
CGAGGTAGAG | 1.01 ± 0.049
AAGGTGTGCC | 1.01 ± 0.03
TAGCATTGTG | 1.02 ± 0.022
AGGTTATGCA | 1.01 ± 0.032
CTAACCATCT | 1.028 ± 0.0038
ATTAGCCCGG | 0.9944 ± 0.00051
TTTTGTATTA | 0.99 ± 0.029
GAAGGGGACG | 1.006 ± 0.0085
AACGGGGGCC | 1.03 ± 0.066
ACTACTACCA | 1.31 ± 0.048
GAGATTGGAA | 1.002 ± 0.0025
ACTTGCTTTA | 1.04 ± 0.017
CTTTGGCTTC | 0.9876 ± 0.0039
GAGTCAGTGG | 0.984 ± 0.012
GACGCACGAA | 1.58 ± 0.057
TCAGGGAGTT | 0.969 ± 0.015
TATTACTTTG | 1.01 ± 0.024
TGTAAAAACG | 1.01 ± 0.056
AAAAGTGTAT | 0.98 ± 0.03
GTACTATCTC | 0.998 ± 0.046
CATGGGTGGG | 0.994 ± 0.028
GGCAACGGGG | 1.01 ± 0.036

Sequence | switch fluorescence ratio
GAGGGGATAG | 1.03 ± 0.046
TGTAAGGATT | 1.009 ± 0.0083
GGGGCAGGAT | 1.22 ± 0.34
GTTGGCGACG | 0.946 ± 0.012
CTGTGTGTTT | 0.9781 ± 0.0072
GGGATAGAGA | 1.02 ± 0.03
GAATCGGGGG | 0.979 ± 0.044
TTAAAGTGAA | 0.988 ± 0.024
TGGTTAGGG | 0.988 ± 0.019
AGGTCTAGAC | 1.04 ± 0.0095
CCAGGTTTCA | 1.03 ± 0.046
TGGGAGTTCA | 0.971 ± 0.01
GGGAAGGTAC | 1.047 ± 0.0014
CTATATTTTT | 1.01 ± 0.025
GGGGGCGCCG | 1.01 ± 0.097
GATTTTCGCT | 0.971 ± 0.022
AATAGATAGT | 0.9929 ± 0.0055
TTTGGTGGGT | 0.975 ± 0.012
ATGCTTATCA | 0.9807 ± 0.0051
TTGCAGTTC | 1.88 ± 1
GAGTGAGTAG | 0.9794 ± 0.0059
AGGACATTGG | 0.966 ± 0.023
AAGGAAGGGT | 1.02 ± 0.041
CATTTTGATG | 0.966 ± 0.011
GGGGCAGTAG | 1.04 ± 0.046

Sequence | switch fluorescence ratio
AAGGGATTGT | 1.18 ± 0.26
TTCGGGGTTT | 1.02 ± 0.06
TCAAATCGTT | 0.992 ± 0.0074
GCATTTTATT | 0.9938 ± 0.0026
AATCGGGGCT | 0.992 ± 0.013
CCCCGGGGGG | 1.09 ± 0.15
CAATGTTATC | 1.01 ± 0.017
AATGTAAAG | 1.03 ± 0.011
AGTGATTCGT | 1.01 ± 0.038
GAGTGGTGTG | 0.979 ± 0.035
AAAACATTTT | 1.03 ± 0.049
AGAAGGTATG | 1.0001 ± 0.0006
TATGCGCAGA | 1.01 ± 0.03
TGTGGAGAGC | 0.999 ± 0.038
ACAAACGTTC | 1.34 ± 0.13
CCCAGCACGT | 1.37 ± 0.04
CAAATTGGTG | 1.083 ± 0.0018
GCGTGTGGTC | 1.02 ± 0.039
ATGGTGTTAT | 0.989 ± 0.014
TCGGCGGGTC | 0.9973 ± 0.0015
GCTCATAGAT | 0.988 ± 0.013
GGGAGGCAGG | 1.07 ± 0.029
ACCGGCGGTT | 1.01 ± 0.032
AAAAAAGCAG | 1.024 ± 0.0014
AGGGAGGATC | 1.02 ± 0.017

Sequence | switch fluorescence ratio
AAAAAGTCTC | 0.9891 ± 0.0092
GAAAGTATGT | 1 ± 0.024
AGGGTGTGTC | 1.007 ± 0.0098
TTGATGGTGC | 1.05 ± 0.038
TTTACATAAG | 1 ± 0.043
ATTTGAGGTA | 1.01 ± 0.012
TAGTTTTTTT | 0.986 ± 0.022
CGGGTAAACG | 0.964 ± 0.079
TACATATGTC | 1.04 ± 0.077
CCGTTGTTCG | 1.02 ± 0.027
GATCGGGGAC | 1.03 ± 0.027
AGAAGTGGTC | 1.01 ± 0.031
AGCTGGGCCT | 1.04 ± 0.011
GTTTTATTGT | 0.955 ± 0.038
ACTTTGCCAC | 1.18 ± 0.016
GAGTTTGAGT | 0.982 ± 0.035
CGCAGTTATT | 1.08 ± 0.014
AGATAGATCT | 0.9871 ± 0.0059
TTAGAGGATT | 1.004 ± 0.007
AATAGTTTTT | 0.986 ± 0.055
ATAAGGGAGG | 0.979 ± 0.022
CGGAGGACAA | 0.976 ± 0.012
CCATATAGAG | 1.02 ± 0.027
CCTAAAGGCT | 1.0151 ± 4.7e-05
TTGGTGTTGC | 0.9916 ± 0.0057

Sequence | switch fluorescence ratio
TGGCCGGAAT | 1.04 ± 0.03
ATTTGTTGT | 0.973 ± 0.052
TGAAAAAAAC | 0.9871 ± 0.0072
GTCTGTATGT | 1.015 ± 0.0028
AATGTCTGTA | 1.01 ± 0.044
GCGGGGTGTG | 1.016 ± 0.0033
TTTCCAAACA | 1.01 ± 0.014
ATGGGGGGAT | 1.23 ± 0.58
CCCAATTTCT | 1.05 ± 0.045
TGCAGGGATG | 0.986 ± 0.041
CCAATTTTAA | 0.985 ± 0.029
GGGGCGCCTG | 1.01 ± 0.048
GGGCCAGTGC | 1.03 ± 0.043
CCAGTAAATT | 0.993 ± 0.046
TACCCTGAAA | 1.022 ± 0.0035
GTATGGCTAG | 0.978 ± 0.029
TTGGTGTGGC | 0.9967 ± 0.0092
AGGCGTTCTG | 0.991 ± 0.051
TTTTTGTTAT | 0.996 ± 0.02
GCAGCTTTTA | 1.09 ± 0.018
GCGGGGATCT | 1.038 ± 0.0091
GGGGGCCTAA | 1 ± 0.028
TTGGGGCCGT | 1.04 ± 0.047
GTGTGTAGGG | 0.999 ± 0.039
ATGTCCCGGT | 0.974 ± 0.025

Sequence | switch fluorescence ratio
GTGAGGGTCG | 1.01 ± 0.011
GGTTTAGATA | 0.987 ± 0.031
ATTTTGAGGT | 0.987 ± 0.018
CTTTAAAGTT | 1.09 ± 0.18
GAGTTGGTCT | 1 ± 0.027
TTTACTTCGC | 1.54 ± 0.089
CCACGTTGAA | 1.05 ± 0.033
TCACGGTGTC | 1.11 ± 0.026
AAGTTAATGT | 1 ± 0.022
GGGGTTTTGT | 1.01 ± 0.011
ACTTGTGCTT | 0.9728 ± 0.0027
GCATACAGGA | 1.02 ± 0.024
GAGTCGGTGT | 1.026 ± 0.0063
CGGGGTGGTT | 1.01 ± 0.038
CGTAAAGTAG | 1.01 ± 0.022
TTGCTGGAAG | 0.978 ± 0.035
CGTTACTTTT | 1.02 ± 0.053
TGGTAGTGCT | 1.01 ± 0.018
CCAAGGAGGG | 0.999 ± 0.017
CTTAAATTCT | 1.01 ± 0.011
TCACAAATGA | 1.013 ± 0.0077
GGGAGGGCAA | 0.986 ± 0.013
CGAACTCGGA | 1.012 ± 0.0076
CCTGTTTTAC | 1.24 ± 0.045
ACGATCAGCG | 1.022 ± 0.0037

Sequence | switch fluorescence ratio
AGATATCATT | 0.9848 ± 0.0086
AATCTGCTGC | 1.09 ± 0.056
TTTACGTAAA | 1.08 ± 0.11
GGTTGTTTGT | 0.995 ± 0.015
AAGTACGGAG | 1.04 ± 0.052
TTGAGTAATG | 1.01 ± 0.017
TGAATTTGGG | 0.997 ± 0.064
CGAGGGGTCC | 0.975 ± 0.043
CAAGACTTGC | 1.03 ± 0.045
GGTCTGTTTG | 0.97 ± 0.025
GATGAAGACT | 1 ± 0.067
AAGGGGCGCA | 0.969 ± 0.045
AGACGATTAG | 0.977 ± 0.03
TGGAGTCCGG | 0.987 ± 0.036
AGTACCATGG | 1.01 ± 0.06
AGTAACCGGG | 1.02 ± 0.035
TAGCGCAGGC | 0.996 ± 0.025
GGATGGTTCG | 0.972 ± 0.023
AACGTTTTTT | 0.991 ± 0.027
CCAGATGGCA | 1.02 ± 0.082
CTAGTTTGAG | 1.01 ± 0.01
AAAAATAATT | 0.983 ± 0.028
CGCGAAGTTG | 0.999 ± 0.057
CCGTTCGACA | 1.37 ± 0.058
GAGACAGCGC | 1.02 ± 0.062

Sequence | switch fluorescence ratio
GATCGCGTAT | 1.02 ± 0.0026
AGGGATGTCC | 1.01 ± 0.044
TTGTAATAGG | 1.27 ± 0.4
TTATTATTTC | 0.98 ± 0.05
TAGGGGGACG | 1.04 ± 0.068
AAGGGTTGGG | 1.06 ± 0.058
CAGCGGAGGT | 1.025 ± 0.0052
ACGACTGCGT | 1.0213 ± 0.00018
ATATGGTGTA | 0.959 ± 0.021
TGCGGGTGGG | 1.03 ± 0.026
ATTTCAGCGA | 1.09 ± 0.014
GGGACTTAAC | 1.03 ± 0.014
GGGGCACATT | 0.9885 ± 0.0046
TGATTCCGGT | 0.992 ± 0.013
TTCAAATCGA | 1 ± 0.039
ACTAGGGTGC | 1.14 ± 0.014
AATTAGGTTT | 1 ± 0.035
AGAGCGTTGT | 0.977 ± 0.023
CGGGAGGGAA | 1.02 ± 0.023
GTTGGAGTTT | 0.975 ± 0.016
AAAAGGTGAA | 1.04 ± 0.089
TTGTACTACC | 1.1603 ± 0.00036
AAAACCGGAT | 1.11 ± 0.18
AGTGTGTTAG | 0.987 ± 0.015
CTGATTATGT | 1.02 ± 0.015
